Positions count from the first letter of the chain named.
B1: bsG1-huCD3-FEALxCD30-HRS-3-FEAR (bispecific antibody, human IgG1, kappa, lambda)
heavy 1: not shown
light 1: not shown
heavy 2: QVQLQQSGAELARPGASVKMSCKASGYTFTTYTIHWVRQRPGHDLEWIGYINPSSGYSDYNQNFKGKTTLTADKSSNTAYMQLNSLTSEDSAVYYCARRADYGNYEYTWFAYWGQGTTVTVSSASTKGPSVFPLAPSSKSTSGGTAALGCLVKDYFPEPVTVSWNSGALTSGVHTFPAVLQSSGLYSLSSVVTVPSSSLGTQTYICNVNHKPSNTKVDKRVEPKSCDKTHTCPPCPAPEFEGGPSVFLFPPKPKDTLMISRTPEVTCVVVAVSHEDPEVKFNWYVDGVEVHNAKTKPREEQYNSTYRVVSVLTVLHQDWLNGKEYKCKVSNKALPAPIEKTISKAKGQPREPQVYTLPPSREEMTKNQVSLTCLVKGFYPSDIAVEWESNGQPENNYKTTPPVLDSDGSFFLYSRLTVDKSRWQQGNVFSCSVMHEALHNHYTQKSLSLSPG
light 2: DIVMTQSPKFMSTSVGDRVTVTCKASQNVGTNVAWFQQKPGQSPKVLIYSASYRYSGVPDRFTGSGSGTDFTLTISNVQSEDLAEYFCQQYHTYPLTFGGGTKLEINRTVAAPSVFIFPPSDEQLKSGTASVVCLLNNFYPREAKVQWKVDNALQSGNSQESVTEQDSKDSTYSLSSTLTLSKADYEKHKVYACEVTHQGLSSPVTKSFNRGEC
notes: Bispecific IgG1 made by controlled Fab-arm exchange
B2: bsG1-huCD3-FEALxCD30-T105-FEAR (bispecific antibody, human IgG1, kappa, lambda)
heavy 1: not shown
light 1: not shown
heavy 2: not shown
light 2: B1 light 2 with P8Q, T20S, G30N, F36Y, K45E, V46A, H92N, T93S, G100S, N107K
notes: Bispecific IgG1 made by controlled Fab-arm exchange; also called bsIgG1-huCD3-FEALxCD30-T105-FEAR
B3: bsG1-b12-FEALxCD30-MDX060-FEAR (bispecific antibody, human IgG1, kappa)
heavy 1: QVQLVQSGAEVKKPGASVKVSCQASGYRFSNFVIHWVRQAPGQRFEWMGWINPYNGNKEFSAKFQDRVTFTADTSANTAYMELRSLRSADTAVYYCARVGPYSWDDSPQDNYYMDVWGKGTTVIVSSASTKGPSVFPLAPSSKSTSGGTAALGCLVKDYFPEPVTVSWNSGALTSGVHTFPAVLQSSGLYSLSSVVTVPSSSLGTQTYICNVNHKPSNTKVDKRVEPKSCDKTHTCPPCPAPEFEGGPSVFLFPPKPKDTLMISRTPEVTCVVVAVSHEDPEVKFNWYVDGVEVHNAKTKPREEQYNSTYRVVSVLTVLHQDWLNGKEYKCKVSNKALPAPIEKTISKAKGQPREPQVYTLPPSREEMTKNQVSLTCLVKGFYPSDIAVEWESNGQPENNYKTTPPVLDSDGSFLLYSKLTVDKSRWQQGNVFSCSVMHEALHNHYTQKSLSLSPG
light 1: EIVLTQSPGTLSLSPGERATFSCRSSHSIRSRRVAWYQHKPGQAPRLVIHGVSNRASGISDRFSGSGSGTDFTLTITRVEPEDFALYYCQVYGASSYTFGQGTKLERKRTVAAPSVFIFPPSDEQLKSGTASVVCLLNNFYPREAKVQWKVDNALQSGNSQESVTEQDSKDSTYSLSSTLTLSKADYEKHKVYACEVTHQGLSSPVTKSFNRGEC
heavy 2: QVQLQQWGAGLLKPSETLSLTCAVYGGSFSAYYWSWIRQPPGKGLEWIGDINHGGGTNYNPSLKSRVTISVDTSKNQFSLKLNSVTAADTAVYYCASLTAYWGQGSLVTVSSASTKGPSVFPLAPSSKSTSGGTAALGCLVKDYFPEPVTVSWNSGALTSGVHTFPAVLQSSGLYSLSSVVTVPSSSLGTQTYICNVNHKPSNTKVDKRVEPKSCDKTHTCPPCPAPEFEGGPSVFLFPPKPKDTLMISRTPEVTCVVVAVSHEDPEVKFNWYVDGVEVHNAKTKPREEQYNSTYRVVSVLTVLHQDWLNGKEYKCKVSNKALPAPIEKTISKAKGQPREPQVYTLPPSREEMTKNQVSLTCLVKGFYPSDIAVEWESNGQPENNYKTTPPVLDSDGSFFLYSRLTVDKSRWQQGNVFSCSVMHEALHNHYTQKSLSLSPG
light 2: DIQMTQSPTSLSASVGDRVTITCRASQGISSWLTWYQQKPEKAPKSLIYAASSLQSGVPSRFSGSGSGTDFTLTISSLQPEDFATYYCQQYDSYPITFGQGTRLEIKRTVAAPSVFIFPPSDEQLKSGTASVVCLLNNFYPREAKVQWKVDNALQSGNSQESVTEQDSKDSTYSLSSTLTLSKADYEKHKVYACEVTHQGLSSPVTKSFNRGEC
notes: Monovalent CD30 control
B4: bsG1-huCD3-FEALxb12-FEAR (bispecific antibody)
heavy 1: not shown
light 1: not shown
heavy 2: B3 heavy 1 with L415F, K419R
light 2: B3 light 1
notes: Monovalent CD3 control; The b12 arm is HIV-1 gp120 specific

How the values were obtained:
human CD30 [1] = biological target: T1, human CD30 (human, UniProt P28908 19-595); test: cell-based or functional assay
T1 sequence: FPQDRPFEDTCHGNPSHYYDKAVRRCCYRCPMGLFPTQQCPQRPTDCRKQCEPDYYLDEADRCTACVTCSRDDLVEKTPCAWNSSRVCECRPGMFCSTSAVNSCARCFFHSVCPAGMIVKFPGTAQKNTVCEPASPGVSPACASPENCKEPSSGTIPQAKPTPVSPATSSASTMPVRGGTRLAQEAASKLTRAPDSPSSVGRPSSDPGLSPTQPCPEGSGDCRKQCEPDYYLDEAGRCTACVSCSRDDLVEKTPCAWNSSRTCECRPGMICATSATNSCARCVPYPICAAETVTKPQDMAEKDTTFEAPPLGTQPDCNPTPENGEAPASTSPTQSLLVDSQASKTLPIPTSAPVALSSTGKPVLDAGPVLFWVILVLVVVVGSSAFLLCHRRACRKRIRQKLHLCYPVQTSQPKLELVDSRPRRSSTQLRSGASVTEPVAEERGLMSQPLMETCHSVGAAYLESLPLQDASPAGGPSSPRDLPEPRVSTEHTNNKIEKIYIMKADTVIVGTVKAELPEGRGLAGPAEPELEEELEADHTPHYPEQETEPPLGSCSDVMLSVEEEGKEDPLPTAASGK

human CD30 [2] = biological target: T1, human CD30; test: flow cytometry, HDLM-2 cells
Method: (§1) Binding of CD3×CD30 bispecific antibodies to two CD30-expressing human tumor cell lines SU-DHL-1 (ALCL; ATCC, cat. no. ACC 356) and HDLM-2 (HL; ATCC, cat. no. CRL-2965) was analyzed […] by flow cytometry.
(§2) Cells (3×10⁴ cells/well) were incubated in polystyrene 96-well round-bottom plates (Greiner bio-one, cat. no. 650180) with serial dilutions of antibodies (range 0.0046 to 10 μg/mL in 3-fold dilution steps) in 50 μL staining buffer at 4° C. for 30 min. After washing twice in staining buffer, cells were incubated with 50 μL secondary antibody at 4° C. for 30 min. […] Next, cells were washed twice in staining buffer, resuspended in 100 μL staining buffer supplemented with TO-PRO-3 iodide (Thermo Fisher Scientific; cat. no. T3605; 1:8000 dilution) and analyzed on a FACSCelesta flow cytometer (BD Biosciences, USA). Live cells were gated based on FSC/SSC and absence of TOPRO-3 staining. Binding curves were analyzed by non-linear regression of log-transformed data (sigmoidal dose-response with variable slope, four parameters) using GraphPad Prism V7.02 software (GraphPad Software, San Diego, CA, USA).

human CD30 [3] = biological target: T1, human CD30; test: flow cytometry, SU-DHL-1 cells
Method: as §1, §2

[4] = biological target: T2, rhesus monkey (Macaca mulatta) CD30 (rhesus monkey, UniProt P28908 19-595 (human entry)); test: flow cytometry, Expi293F cells transfected with rhesus monkey CD30
T2 construct: also called mmCD30
T2 chain: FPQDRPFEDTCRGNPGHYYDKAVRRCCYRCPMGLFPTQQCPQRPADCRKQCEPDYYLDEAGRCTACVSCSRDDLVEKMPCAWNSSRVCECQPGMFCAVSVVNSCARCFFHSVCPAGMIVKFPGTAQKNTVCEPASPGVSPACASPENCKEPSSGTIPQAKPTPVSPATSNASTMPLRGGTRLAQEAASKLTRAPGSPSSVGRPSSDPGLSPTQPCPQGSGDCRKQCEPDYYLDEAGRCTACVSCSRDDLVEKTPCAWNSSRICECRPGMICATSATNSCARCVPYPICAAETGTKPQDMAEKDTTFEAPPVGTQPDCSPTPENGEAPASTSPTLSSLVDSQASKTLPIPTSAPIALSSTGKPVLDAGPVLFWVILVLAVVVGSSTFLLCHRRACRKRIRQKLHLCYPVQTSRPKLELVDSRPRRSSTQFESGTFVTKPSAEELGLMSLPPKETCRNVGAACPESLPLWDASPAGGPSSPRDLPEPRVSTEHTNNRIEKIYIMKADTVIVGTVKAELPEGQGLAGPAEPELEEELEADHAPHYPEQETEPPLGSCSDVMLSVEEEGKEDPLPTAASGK
Method: (§3) Cells (3×10⁴ cells/well) were incubated in polystyrene 96-well round-bottom plates (Greiner bio-one, cat. no. 650180) with serial dilutions of antibodies (ranging from 0.005 to 10 μg/mL in 3-fold dilution steps) in 100 μL staining buffer at 4° C. for 30 min. Experiments were performed in technical duplicate. After washing twice in staining buffer, cells were incubated in 50 μL secondary antibody at 4° C. for 30 min. As a secondary antibody, R-PE-conjugated goat-anti-human IgG (Jackson ImmunoResearch, UK; cat. no. 109⁻¹¹⁶-098) diluted 1:400 in staining buffer was used. Cells were washed twice in staining buffer, resuspended in 30 μL staining buffer containing 0.4% EDTA and analyzed on an iQue Screener (Intellicyt Corporation, USA). Binding curves were analyzed using non-linear regression (sigmoidal dose-response with variable slope) using GraphPad Prism V9.0.0 software (GraphPad Software, San Diego, CA, USA).

human CD30 [5] = biological target: T1, human CD30; test: flow cytometry, DEL cells
human CD30 [6] = biological target: T1, human CD30; test: flow cytometry, KI-JK cells
human CD30 [7] = biological target: T1, human CD30; test: flow cytometry, HDLM-2 cells
[8] = biological target: T3, cynomolgus monkey (Macaca fascicularis) CD30 (cynomolgus monkey, UniProt P28908 19-595 (human entry)); test: flow cytometry, Expi293F cells transfected with cynomolgus monkey CD30 (mfCD30)
T3 construct: also called mfCD30
T3 chain: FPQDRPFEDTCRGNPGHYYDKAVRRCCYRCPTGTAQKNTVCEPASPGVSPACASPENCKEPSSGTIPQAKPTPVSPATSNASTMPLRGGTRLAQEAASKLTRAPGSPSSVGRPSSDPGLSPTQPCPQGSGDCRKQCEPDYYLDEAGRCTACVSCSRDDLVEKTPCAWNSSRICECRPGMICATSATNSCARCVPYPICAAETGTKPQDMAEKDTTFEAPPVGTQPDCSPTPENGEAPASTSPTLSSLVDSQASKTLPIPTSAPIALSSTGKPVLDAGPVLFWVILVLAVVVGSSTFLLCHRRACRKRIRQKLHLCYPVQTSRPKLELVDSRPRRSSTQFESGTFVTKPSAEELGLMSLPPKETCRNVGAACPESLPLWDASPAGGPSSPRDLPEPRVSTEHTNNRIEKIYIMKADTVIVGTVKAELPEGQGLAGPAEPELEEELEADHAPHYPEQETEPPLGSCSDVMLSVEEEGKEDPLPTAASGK
Method: as §3

cynomolgus monkey CD3 = biological target: T4, cynomolgus monkey CD3 (cynomolgus monkey, UniProt Q95LI5 22-198); test: flow cytometry, cynomolgus monkey T cells (PBMCs)
T4 construct: CD3 endogenously expressed on T cells within cynomolgus monkey PBMCs
T4 sequence (Q95LI5 22-198): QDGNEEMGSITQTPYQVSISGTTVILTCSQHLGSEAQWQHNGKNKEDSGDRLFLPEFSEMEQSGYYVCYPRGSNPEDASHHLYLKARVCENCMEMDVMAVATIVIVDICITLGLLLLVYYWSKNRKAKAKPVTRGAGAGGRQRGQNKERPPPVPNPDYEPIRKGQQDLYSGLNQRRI
Method: Cynomolgus monkey PBMCs (Tebu-Bio, The Netherlands; cat. no. PBMCMFA-10) or purified human T cells were plated in polystyrene 96-well round-bottom plates. T cells were derived from human donor buffy coats (Sanquin, Amsterdam, The Netherlands) and isolated using the RosetteSep human T cell enrichment cocktail (Stemcell Technologies, France, cat. no. 15061) according to manufacturer's instructions. […] After washing twice in staining buffer, cells were incubated in 50 μL secondary R-PE-conjugated goat-anti-human IgG antibody at 4° C. for 30 min (1:400 dilution). After washing twice in staining buffer, T cells were stained for T-cell markers CD3 (1:100; Miltenyi biotec, clone 10D12, conjugated to APC), CD4 (1:50; eBioscience, clone OKT4, conjugated to APC-Cy7), CD8 (1:100; Biolegend, clone RPA-T8, conjugated to AF700) and T-cell activation markers CD69 (1:50; BD Biosciences, clone AB2439, conjugated to FITC), CD25 (1:50; eBioscience, clone BC96, conjugated to PE-Cy7) and CD279/PD1 (1:50; BD Biosciences, clone AEH12.2H7, conjugated to BV605). Single stained samples with Ultracomp beads (5 μL; Invitrogen, cat. no. 01-2222-42) were used for compensation adjustments of the flow cytometer. After 30 min of incubation at 4° C., cells were washed twice with staining buffer, resuspended in 100 μL staining buffer and analyzed using a FACS Fortessa (BD Biosciences). Data were processed using FlowJo (BD Biosciences).

Row | Binder | T-cell mediated cytotoxicity of Karpas-299 cells, IC50 average (human CD30 [1]) | T-cell mediated cytotoxicity of Karpas-299 cells, maximum lysis average (human CD30 [1]) | EC50 (read off the curve) (human CD30 [2]) | EC50 (read off the curve) (human CD30 [3]) | EC50 (read off the curve) [4] | EC50 (read off the curve) (human CD30 [5]) | EC50 (read off the curve) (human CD30 [6]) | EC50 (read off the curve) (human CD30 [7]) | binding result [8] | EC50 (read off the curve) (cynomolgus monkey CD3)
1 | B1 | 0.068 µg/mL | 47.5% | ~0.1 µg/mL | ~0.2 µg/mL | ~0.3 µg/mL | – | – | – | – | –
2 | B2 | 0.042 µg/mL | 52.6% | ~0.4 µg/mL | ~0.3 µg/mL | ~0.3 µg/mL | – | – | – | – | –
3 | B3 | – | – | ~0.3 µg/mL | ~0.4 µg/mL | – | ~0.2 µg/mL | ~0.2 µg/mL | ~0.1 µg/mL | binds | –
4 | B4 | – | – | – | – | – | – | – | – | – | ~0.5 µg/mL

Reference: patent US20260234255A1 (Genmab, published 2026)
